The values that follow come from paper PMC6589570 (Molecular Biology of the Cell, 2019).

This assay concerns the target T1, cytosolic domain of SEC12 (PREB), his-tagged (UniProt Q9HCU5 1-388).
T1 sequence (looked up): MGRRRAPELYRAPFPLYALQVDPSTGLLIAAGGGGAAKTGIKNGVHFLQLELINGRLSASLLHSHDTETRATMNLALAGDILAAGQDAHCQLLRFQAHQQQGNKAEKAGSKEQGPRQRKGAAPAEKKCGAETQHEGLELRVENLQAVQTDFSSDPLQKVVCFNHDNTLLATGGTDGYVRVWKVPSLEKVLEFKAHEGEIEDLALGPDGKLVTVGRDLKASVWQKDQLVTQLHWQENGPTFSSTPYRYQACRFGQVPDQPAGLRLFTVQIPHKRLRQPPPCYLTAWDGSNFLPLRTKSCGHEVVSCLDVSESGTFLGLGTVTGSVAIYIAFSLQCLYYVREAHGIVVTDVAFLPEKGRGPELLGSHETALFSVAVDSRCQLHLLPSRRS
Description: liposome flotation.

B1: fatty-acid binding protein 5 (FABP5), rat (natural protein, UniProt P55053 1-135, looked up)
chain: MASLKDLEGKWRLVESHGFEDYMKELGVGLALRKMGAMAKPDCIITLDGNNLTVKTESTVKTTVFSCTLGEKFDETTADGRKTETVCTFTDGALVQHQKWEGKESTITRKLKDGKMVVECVMNNAICTRVYEKVQ
As for B1, the “fold recruitment to liposomes with SEC12 against without SEC12” value is about 3.5 fold.
